Results reported in patent US20050282743A1, “Molecular interactions in cells” (Arbor Vita Corporation, priority 2001, published 2005).
Values belong to the binder of their own block, whether it stands above or below them.

What was measured:
[1] = biological target: T1, GST-AF6 PDZ domain 1 (Homo sapiens (Human)), P55196; assay: G' assay; further: key of the grades not given here
T1 chain: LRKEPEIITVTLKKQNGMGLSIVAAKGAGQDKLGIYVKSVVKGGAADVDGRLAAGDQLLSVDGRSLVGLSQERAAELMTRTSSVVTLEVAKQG

[2] = biological target: T2, GST-AIPC PDZ domain 1 (Homo sapiens (Human)), O15018; assay: G' assay; further: key of the grades not given here
T2 chain: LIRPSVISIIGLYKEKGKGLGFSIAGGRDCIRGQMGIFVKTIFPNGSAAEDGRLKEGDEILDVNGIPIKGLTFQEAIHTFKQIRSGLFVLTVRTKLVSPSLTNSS

[3] = biological target: T3, GST-AIPC PDZ domain 4 (Homo sapiens (Human)), O15018; assay: G' assay; further: key of the grades not given here
T3 chain: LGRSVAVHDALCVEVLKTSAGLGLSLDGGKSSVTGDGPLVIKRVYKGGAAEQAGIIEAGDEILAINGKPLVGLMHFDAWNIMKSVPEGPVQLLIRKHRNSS

[4] = biological target: GST-Atrophin-1 Interacting Protein PDZ domain 5 (Rattus norvegicus (Rat)), O88382; assay: G' assay; further: key of the grades not given here
[5] = biological target: T4, GST-DVL2 PDZ domain 1 (Homo sapiens (Human)), O14641; assay: G' assay; further: key of the grades not given here
T4 chain: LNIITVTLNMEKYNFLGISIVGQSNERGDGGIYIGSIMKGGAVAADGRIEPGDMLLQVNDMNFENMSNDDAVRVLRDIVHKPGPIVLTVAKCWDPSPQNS

[6] = biological target: T5, GST-FLJ 10324 PDZ domain 1 [GST: P08515]; assay: G' assay; further: key of the grades not given here
T5 chain: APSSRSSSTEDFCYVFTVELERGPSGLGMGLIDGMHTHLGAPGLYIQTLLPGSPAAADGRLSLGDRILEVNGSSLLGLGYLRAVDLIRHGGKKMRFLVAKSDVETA

[7] = biological target: T6, GST-HEMBA 1003117 PDZ domain 1 (Homo sapiens (Human)), Q96JH8; assay: G' assay; further: key of the grades not given here
T6 chain: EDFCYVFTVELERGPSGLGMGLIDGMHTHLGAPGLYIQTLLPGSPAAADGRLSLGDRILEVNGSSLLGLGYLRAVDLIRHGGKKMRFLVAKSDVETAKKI

[8] = biological target: T7, GST-INADL PDZ domain 3 (Homo sapiens (Human)), Q8NI35; assay: G' assay; further: key of the grades not given here
T7 chain: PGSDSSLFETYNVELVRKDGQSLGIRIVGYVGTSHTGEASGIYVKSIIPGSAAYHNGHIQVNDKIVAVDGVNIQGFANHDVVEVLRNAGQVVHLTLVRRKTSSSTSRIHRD

[9] = biological target: T8, GST-KIAA0561 PDZ domain 1 (Homo sapiens (Human)), O60307; assay: G' assay; further: key of the grades not given here
T8 chain: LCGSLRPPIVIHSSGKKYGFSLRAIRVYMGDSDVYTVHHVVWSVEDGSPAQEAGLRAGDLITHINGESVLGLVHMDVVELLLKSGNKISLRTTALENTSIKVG

[10] = biological target: T9, GST-KIAA0751(L) PDZ domain 1 (Mus musculus (Mouse)), Q9EQZ7; assay: G' assay; further: key of the grades not given here
T9 chain: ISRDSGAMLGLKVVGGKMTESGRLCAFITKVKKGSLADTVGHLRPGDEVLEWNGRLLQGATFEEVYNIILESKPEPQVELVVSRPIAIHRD

[11] = biological target: T10, GST-KIAA0807(S) PDZ domain 1 (Homo sapiens (Human)), Q6P0Q8; assay: G' assay; further: key of the grades not given here
T10 chain: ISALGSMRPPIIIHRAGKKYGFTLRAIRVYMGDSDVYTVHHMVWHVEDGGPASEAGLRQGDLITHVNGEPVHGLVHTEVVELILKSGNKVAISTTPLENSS

[12] = biological target: T11, GST-MINT1 PDZ domains 1, 2, Q02410; assay: G' assay; further: key of the grades not given here
T11 chain: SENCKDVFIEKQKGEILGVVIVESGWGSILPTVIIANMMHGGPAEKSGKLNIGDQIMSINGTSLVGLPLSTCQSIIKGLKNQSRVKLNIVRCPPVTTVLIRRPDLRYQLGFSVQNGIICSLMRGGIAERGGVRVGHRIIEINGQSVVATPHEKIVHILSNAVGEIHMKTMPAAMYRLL

[13] = biological target: T12, GST-MUPP1 PDZ domain 3 (Homo sapiens (Human)), O75970; assay: G' assay; further: key of the grades not given here
T12 chain: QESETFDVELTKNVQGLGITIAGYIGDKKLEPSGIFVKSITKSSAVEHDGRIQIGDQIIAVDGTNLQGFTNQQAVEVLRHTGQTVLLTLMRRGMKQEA

[14] = biological target: T13, GST-MUPP1 PDZ domain 7 (Homo sapiens (Human)), O75970; assay: G' assay; further: key of the grades not given here
T13 chain: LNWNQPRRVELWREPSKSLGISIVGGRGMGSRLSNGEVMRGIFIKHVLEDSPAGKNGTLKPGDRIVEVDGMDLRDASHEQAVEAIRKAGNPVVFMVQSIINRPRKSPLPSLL

[15] = biological target: T14, GST-MUPP1 PDZ domain 9 (Homo sapiens (Human)), O75970; assay: G' assay; further: key of the grades not given here
T14 chain: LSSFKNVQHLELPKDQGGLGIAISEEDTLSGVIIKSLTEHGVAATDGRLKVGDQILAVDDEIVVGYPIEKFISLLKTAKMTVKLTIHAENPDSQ

[16] = biological target: T15, GST-NOS1 PDZ domain 1 (Homo sapiens (Human)), P29475; assay: G' assay; further: key of the grades not given here
T15 chain: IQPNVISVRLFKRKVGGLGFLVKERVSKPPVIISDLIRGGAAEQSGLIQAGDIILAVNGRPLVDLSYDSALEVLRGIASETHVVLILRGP

[17] = biological target: GST-PAR3 PDZ domain 3 (Homo sapiens (Human)), Q8TEW0; assay: G' assay; further: key of the grades not given here
[18] = biological target: T16, GST-PTPL1 PDZ domain 4 (Homo sapiens (Human)), Q12923; assay: G' assay; further: key of the grades not given here
T16 chain: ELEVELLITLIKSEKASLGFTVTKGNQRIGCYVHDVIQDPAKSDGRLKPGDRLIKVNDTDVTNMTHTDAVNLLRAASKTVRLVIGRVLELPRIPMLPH

[19] = biological target: T17, GST-ZO-1 PDZ domain 1 (Rattus norvegicus (Rat)), A0A0G2; assay: G' assay; further: key of the grades not given here
T17 chain: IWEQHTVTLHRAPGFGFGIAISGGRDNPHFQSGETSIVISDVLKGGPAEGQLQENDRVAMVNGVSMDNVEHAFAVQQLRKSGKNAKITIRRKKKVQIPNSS

[20] = biological target: T5, GST-FLJ 10324 PDZ domain 1 [GST: P08515]; assay: G assay titration, PDZ 1 ug/ml
[21] = biological target: T11, GST-MINT1 PDZ domains 1, 2, Q02410; assay: G assay titration, PDZ 2 ug/ml
[22] = biological target: T16, GST-PTPL1 PDZ domain 4 (Homo sapiens …); assay: G assay titration, PDZ 3 ug/ml
[23] = biological target: T13, GST-MUPP1 PDZ domain 7 (Homo sapiens …); assay: G assay titration, PDZ 5 ug/ml
[24] = biological target: T6, GST-HEMBA 1003117 PDZ domain 1 (Homo …); assay: G assay titration, PDZ 0.5 ug/ml
[25] = biological target: GST-PAR3 PDZ domain 3 (Homo sapiens (Human)), Q8TEW0; assay: G assay titration, PDZ 0.5 ug/ml
[26] = biological target: GST-PSD95 PDZ domains 1, 2, 3 (Homo sapiens), P78352; assay: G assay competition vs 10 uM biotin-CD95 20-mer; competitor 100 uM
[27] = biological target: GST-PSD95 PDZ domains 1, 2, 3 (Homo sapiens), P78352; assay: G assay competition vs 20 uM biotin-CD46 20-mer; competitor 100 uM
[28] = biological target: GST-PSD95 PDZ domains 1, 2, 3 (Homo sapiens), P78352; assay: G assay competition vs 10 uM biotin-KV1.3 20-mer; competitor 100 uM
[29] = biological target: GST-PSD95 PDZ domains 1, 2, 3 (Homo sapiens), P78352; assay: G assay competition vs 20 uM biotin-CLASP-2 20-mer; competitor 100 uM
[30] = biological target: T18, GST-KIAA1634 PDZ domain 2 (Homo sapiens (Human)), Q5TCQ9; assay: G' assay; further: key of the grades not given here
T18 chain: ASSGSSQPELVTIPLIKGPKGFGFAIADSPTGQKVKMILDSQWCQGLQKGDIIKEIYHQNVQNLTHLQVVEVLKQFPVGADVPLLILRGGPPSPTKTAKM

[31] = biological target: T19, GST-PTPL1 PDZ domain 2 (Homo sapiens (Human)), Q12923; assay: G' assay; further: key of the grades not given here
T19 chain: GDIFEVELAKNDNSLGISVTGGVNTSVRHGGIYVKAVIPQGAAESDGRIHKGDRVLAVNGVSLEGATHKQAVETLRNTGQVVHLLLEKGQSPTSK

[32] = biological target: T18, GST-KIAA1634 PDZ domain 2 (Homo sapiens …); assay: G assay titration, PDZ 5 ug/ml
[33] = biological target: T19, GST-PTPL1 PDZ domain 2 (Homo sapiens …); assay: G assay titration, PDZ 5 ug/ml
[34] = biological target: GST-BAI-1 Associated Protein PDZ domain 3 (Homo sapiens (Human)), Q96QZ7; assay: G' assay; further: key of the grades not given here
[35] = biological target: GST-DLG1 PDZ domains 1, 2 (Homo sapiens), Q12959; assay: G' assay; further: key of the grades not given here
[36] = biological target: T20, GST-NeDLG PDZ domains 1, 2, Q92796; assay: G' assay; further: key of the grades not given here
T20 chain: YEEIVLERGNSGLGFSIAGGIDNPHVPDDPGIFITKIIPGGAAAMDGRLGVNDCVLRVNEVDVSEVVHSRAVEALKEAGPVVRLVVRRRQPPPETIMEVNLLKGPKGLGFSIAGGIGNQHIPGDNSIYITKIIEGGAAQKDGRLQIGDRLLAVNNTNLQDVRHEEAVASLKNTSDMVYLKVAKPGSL

[37] = biological target: GST-PSD95 PDZ domains 1, 2, 3 (Homo sapiens), P78352; assay: G' assay; further: key of the grades not given here
[38] = biological target: T21, GST-Syntrophin 1 alpha PDZ domain 1 (Homo sapiens (Human)), Q13424; assay: G' assay; further: key of the grades not given here
T21 chain: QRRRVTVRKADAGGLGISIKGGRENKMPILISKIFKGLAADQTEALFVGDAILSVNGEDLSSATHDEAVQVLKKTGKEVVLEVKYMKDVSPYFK

[39] = biological target: T22, GST-Syntrophin gamma 1 PDZ domain 1 (Homo sapiens (Human)), Q9NSN8; assay: G' assay; further: key of the grades not given here
T22 chain: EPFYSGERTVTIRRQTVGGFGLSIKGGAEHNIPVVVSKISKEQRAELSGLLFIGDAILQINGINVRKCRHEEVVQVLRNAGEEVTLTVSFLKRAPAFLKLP

[40] = biological target: T23, GST-TIP1 PDZ domain 1 (Table 9 insert) (Homo sapiens (Human)), O14907; assay: G' assay; further: key of the grades not given here
T23 chain: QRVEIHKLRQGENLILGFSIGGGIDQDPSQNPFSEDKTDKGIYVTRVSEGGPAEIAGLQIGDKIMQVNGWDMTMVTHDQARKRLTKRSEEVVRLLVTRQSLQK

[41] = biological target: T18, GST-KIAA1634 PDZ domain 2 (Homo sapiens …); assay: G assay titration, PDZ 1 ug/ml
[42] = biological target: T19, GST-PTPL1 PDZ domain 2 (Homo sapiens …); assay: G assay titration, PDZ 0.5 ug/ml

GST-PSD95 PDZ domains 1, 2, 3 (Homo sapiens), P78352, sequence (P78352 62-395): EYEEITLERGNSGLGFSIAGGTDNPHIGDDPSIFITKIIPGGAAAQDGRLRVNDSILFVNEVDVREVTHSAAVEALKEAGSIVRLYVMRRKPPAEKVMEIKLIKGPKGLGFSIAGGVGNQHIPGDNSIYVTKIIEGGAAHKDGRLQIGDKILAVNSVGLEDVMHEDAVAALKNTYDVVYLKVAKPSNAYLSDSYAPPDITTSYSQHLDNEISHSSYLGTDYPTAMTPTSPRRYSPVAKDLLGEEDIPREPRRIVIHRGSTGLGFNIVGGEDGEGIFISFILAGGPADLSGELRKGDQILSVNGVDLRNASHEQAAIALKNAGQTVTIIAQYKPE
GST-Atrophin-1 Interacting Protein PDZ domain 5 (Rattus norvegicus (Rat)), O88382, sequence (O88382 1128-1225): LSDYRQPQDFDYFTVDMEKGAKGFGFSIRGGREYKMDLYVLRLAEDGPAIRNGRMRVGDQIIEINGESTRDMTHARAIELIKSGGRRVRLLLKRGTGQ
GST-PAR3 PDZ domain 3 (Homo sapiens (Human)), Q8TEW0, sequence (Q8TEW0 579-681): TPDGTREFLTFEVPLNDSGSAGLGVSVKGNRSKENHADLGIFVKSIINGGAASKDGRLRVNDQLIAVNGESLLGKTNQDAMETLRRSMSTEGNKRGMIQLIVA
GST-BAI-1 Associated Protein PDZ domain 3 (Homo sapiens (Human)), Q96QZ7, sequence (Q96QZ7 other isoform, or with tags, fused parts or gaps): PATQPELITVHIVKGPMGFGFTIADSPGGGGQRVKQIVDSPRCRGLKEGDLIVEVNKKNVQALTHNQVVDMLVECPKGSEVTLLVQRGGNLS

- Classification [1]: 3 A450 class
- Classification [2]: 1 A450 class
- Classification [3]: 1 A450 class
- Classification [4]: 1 A450 class
- Classification [5]: 1 A450 class
- Classification [6]: 5 A450 class
- Classification [7]: 4 A450 class
- Classification [8]: 1 A450 class
- Classification [9]: 1 A450 class
- Classification [10]: 1 A450 class
- Classification [11]: 1 A450 class
- Classification [12]: 3 A450 class
- Classification [13]: 3 A450 class
- Classification [14]: 2 A450 class
- Classification [15]: 3 A450 class
- Classification [16]: 1 A450 class
- Classification [17]: 5 A450 class
- Classification [18]: 2 A450 class
- Classification [19]: 1 A450 class
- Kd [20]: 1 µM
- Kd [21]: 6 µM
- Kd [22]: 8 µM
- Kd [23]: 4 µM
- Kd [24]: 4 µM
- Kd [25]: 2 µM
Binder: STDNLVRPFMDTLASHQLYI (modifications not checked) [presenilin-2]

- % binding of labelled 20-mer [26]: 65%
- % binding of labelled 20-mer [27]: 95%
- % binding of labelled 20-mer [28]: 71%
- % binding of labelled 20-mer [29]: 81%
Binder: REVKFTSL (modifications not checked) [CD46 8-mer]

- Classification [30]: 2 A450 class
- Classification [31]: 3 A450 class
- Kd [32]: 5 µM
- Kd [33]: 5 µM
Binder: IVTVVTMVTNVDFPPKESSL (modifications not checked) [ActRIIA]

- Classification [4]: 1 A450 class
- Classification [34]: 1 A450 class
- Classification [35]: 1 A450 class
- Classification [30]: 3 A450 class
- Classification [36]: 1 A450 class
- Classification [37]: 1 A450 class
- Classification [31]: 4 A450 class
- Classification [38]: 1 A450 class
- Classification [39]: 1 A450 class
- Classification [40]: 1 A450 class
- Kd [41]: 7 µM
- Kd [42]: 6 µM
Binder: EDPKDRPSAAHIVEALETDV (modifications not checked) [PDZ-binding kinase (PBK)]
